Data set [1] can be described thus: Stability of the peptide in 1% acid solution, incubation for 24 hr at 37° C. The format is physicochemical. The note with it: 1% acetic acid. Here is the method:
PTH 1-34 (molecular weight of 4117.8, UCB Bioproducts, USA) was received as a lyophilized powder. The peptide was made up in 1% acetic acid. The stability of the peptide in 1% acid solution was confirmed by incubating it for 24 hr at 37° C.

Data set [2] in a line: Stability assay of PTH 1-34 in various buffer solutions over 24 hr at 37° C. The class given is physicochemical. Here is the method: The stability of PTH 1-34 in various buffer solutions over 24 hr at 37° C. was evaluated to allow selection of a suitable buffer for in vitro release experiments. The lyophilized peptide (0.1 mg) was dissolved in each buffer solution that was tested. The concentration of PTH 1-34 in samples withdrawn from the solution at 0, 4, 8, and 24 hours were analyzed by HPLC (Gemini (Phenomenex) 5 μ C18, 250×4.6; mobile phase˜0.1% Trifluoroacetic acid/Acetonotrile:0.1% Trifluoroacetic acid/Water, gradient elution, 1 mL/min; 100 μL injection, UV PDA detection at 214).

On to “PTH 1-34: Parathyroid hormone fragment 1-34, molecular weight 4117.8, UCB Bioproducts, lyophilized powder”, for which the “stability of the peptide in 1% acid solution” value in data set [1] is given as “confirmed”. In data set [2] (KCl/Cl buffer pH=2.2, over 24 hr), the “stability at pH=2.2 over 24 hr” value was “stable”. Further, in data set [2] (buffer pH=1.2, 37° C.), the “stability at pH=1.2” value is “decreased stability”. The “stability at pH>7” value in data set [2] (buffer pH>7, 37° C.) is “decreased stability”. In addition, the “stability in various buffer solutions” value in data set [2] (various buffer solutions, 24 hr at 37° C.) is on record as “stable over a wide range of pH values”.
